Laboratory results taken from patent US20090202508A1, “NEGATIVE REGULATION OF HYPOXIA INDUCIBLE FACTOR 1 BY OS-9” (THE JOHNS HOPKINS UNIVERSITY, priority 2004, published 2009).

Legend:
[1] = tested on: HIF-1α; assay: HIF-1α protein levels by immunoblot in transfected 293 cells; type: cell-based, human
Method: (§1) 293 or Hep3B cells were seeded onto 24-well plates at 8×10^4 cells per well of a 24-well plate. The following day, the cells were transfected with plasmid DNAs using Fugene-6 (Roche) for 293 and Lipofectamine Plus (Invitrogen) for Hep3B cells. After 24 h, the cells were exposed to 20% or 1% O2 for 24 h. Cells were lysed, and the luciferase activities were determined by multi-well luminescence reader (PerkinElmer), using the Dual-Luciferase Reporter Assay System (Promega). For p2.1 reporter assay, cells were co-transfected with 15 ng of control reporter pSV-Renilla, 135 ng of HIF-1 reporter p2.1, and expression vector encoding HA-OS-9, HIF-1α, or empty vector. Unless indicated otherwise, 200 ng of HIF-1α, 400 ng of HA-OS-9, 1 ng of PHD2, or 1 ng of HIF-1α triple mutant P402A/P564A/N803A (HIF-1α TM) expression vector was used for co-transfection. For pGalA reporter assays, Hep3B cells were co-transfected with 12.5 ng of pSV-Renilla, reporter 200 ng of pG5ElbLuc, 100 ng of expression vector encoding the GAL4 DNA-binding domain alone or fused to HIF-1α residues 531-826 (Jiang et al. 1997) and empty vector or vector encoding HA-OS-9. For immunoblot assays, 293 cells were seeded at 3×10^6 cells per 10-cm plate. The following day, the cells were co-transfected with expression vectors using Fugene-6. After 24 h, the cells were exposed to 20% or 1% O2 with or without MG132 (10 μM) for 8 h and lysed in 200 μl of lysis buffer containing 50 mM Tris-Cl (pH 8.0), 150 mM NaCl, 5 mM EDTA, 0.1% SDS, 1% NP-40, 0.5% sodium deoxycholate, Complete protease inhibitor cocktail (Roche), sodium orthovanadate, and sodium vanadate (Sigma).

[2] = biological target: T1, PHD2 (Homo sapiens, UniProt Q9GZT9); assay: Prolyl hydroxylation assay / in vitro VHL binding assay with GST-HIF-1α (531-826); type: biochemical
T1 construct: expressed in transfected cells; host or cells: 293 cells (whole cell lysate used as the enzyme source)
Method: [^35S]methionine-labeled VHL protein was synthesized in vitro and GST-HIF-1α (531-826) fusion protein (GstA) was expressed in E. coli. 293 cells were transfected with empty, PHD2, or OS-9 expression vector. After 24 h, cells were washed twice with cold hypotonic extraction buffer containing 20 mM Tris (pH 7.5), 5 mM KCl, 1.5 mM MgCl2, 1 mM dithiothreitol and lysed with hypotonic extraction buffer in a Dounce homogenizer. The cell extract was centrifuged at 10,000×g for 10 min at 4° C., and the supernatant was stored in aliquots at −70° C. GstA (4 μg) was preincubated with whole cell lysate (50 μg) in a total volume of 50 μl with PBS-T at 30° C. for 10 min with or without 1 mM dimethyloxalyl glycine (DMOG). The reaction was terminated by addition of desferrioxamine to 1 mM. One aliquot (0.5 μg of GstA) was used for immunoblot assay using anti-hydroxyproline-564 HIF-1α antibody (Chan et al., 2002). The remainder ([…] of GstA) was used for in vitro VHL binding assay.
For in vitro VHL binding assay, preincubated GstA and 5 μl of [^35S]methionine-labeled VHL protein were mixed in a total volume of 300 μl of PBS-T with 1 mM desferrioxamine and incubated at 4° C. for 90 min. 20 ul of glutathione-Sepharose-4B beads (Amersham Biosciences) was added and incubated for 30 min with rotation. Beads were washed three times with PBS-T. Proteins were eluted in Laemmli sample buffer, fractionated by SDS-PAGE, and detected by autoradiography. For PHD binding assay, […] of GST-HIF-1α was preincubated with 50 μg of -whole cell lysate in a total volume of 50 μl with PBS-T at 30° C. for 10 min with or without 1 mM DMOG. The reaction was terminated by addition of desferrioxamine to 1 mM, 20 μl of glutathione-Sepharose-4B beads were added and incubated for 30 min. The beads were washed three times with PBS-T. Bound protein was eluted in Laemmli sample buffer, fractionated by SDS-PAGE, and subjected to immunoblot assay using antibodies against PHD2 (Novus Biologicals Inc.) or GST (Amersham).

[3] = tested on: HIF-1; assay: HIF-1-dependent p2.1 luciferase reporter assay; type: cell-based, human
Method: as §1

[4] = biological target: T1, PHD2; assay: Co-immunoprecipitation of HA-OS-9 with PHD2 in 293 cells; type: cell-based; conditions: anti-HA immunoprecipitates, immunoblot; FIG. 5
Method: 293 cells (3×10^6 cells per […] plate) were transfected with Lipofectamine Plus and a total of 10 μg of expression vectors. After 24 h, cells were lysed with PBS/0.1% Tween-20. 400 μg of whole cell lysate (brought to a final volume of 200 μl with lysis buffer) were immunoprecipitated using anti-HA affinity matrix (Roche) followed by immunoblot assay using antibody against HIF-1α (Zhong et al. 1999), PHD 1-3 (Novus Biologicals Inc.), or HA (Roche).

[5] = tested on: PHD2; assay: PHD2 protein levels by immunoblot in transfected 293 cells; type: cell-based, human; conditions: co-transfection of OS-9 vector; FIG. 7C
Method: 293 or Hep3B cells were seeded onto 24-well plates at 8×10^4 cells per well of a 24-well plate. The following day, the cells were transfected with plasmid DNAs using Fugene-6 (Roche) for 293 and Lipofectamine Plus (Invitrogen) for Hep3B cells. After 24 h, the cells were exposed to 20% or 1% O2 for 24 h. Cells were lysed, and the luciferase activities were determined by multi-well luminescence reader (PerkinElmer), using the Dual-Luciferase Reporter Assay System (Promega). For p2.1 reporter assay, cells were co-transfected with 15 ng of control reporter pSV-Renilla, 135 ng of HIF-1 reporter p2.1, and expression vector encoding HA-OS-9, HIF-1α, or empty vector. Unless indicated otherwise, 200 ng of HIF-1α, 400 ng of HA-OS-9, 1 ng of PHD2, or 1 ng of HIF-1α triple mutant P402A/P564A/N803A (HIF-1α TM) expression vector was used for co-transfection. […]
For in vitro VHL binding assay, preincubated GstA and 5 μl of [^35S]methionine-labeled VHL protein were mixed in a total volume of 300 μl of PBS-T with 1 mM desferrioxamine and incubated at 4° C. for 90 min. […] Beads were washed three times with PBS-T. Proteins were eluted in Laemmli sample buffer, fractionated by SDS-PAGE, and detected by autoradiography. […]

[6] = 293 cells, co-transfection of OS-9, FIG. 4B

T1 sequence (Q9GZT9 whole entry): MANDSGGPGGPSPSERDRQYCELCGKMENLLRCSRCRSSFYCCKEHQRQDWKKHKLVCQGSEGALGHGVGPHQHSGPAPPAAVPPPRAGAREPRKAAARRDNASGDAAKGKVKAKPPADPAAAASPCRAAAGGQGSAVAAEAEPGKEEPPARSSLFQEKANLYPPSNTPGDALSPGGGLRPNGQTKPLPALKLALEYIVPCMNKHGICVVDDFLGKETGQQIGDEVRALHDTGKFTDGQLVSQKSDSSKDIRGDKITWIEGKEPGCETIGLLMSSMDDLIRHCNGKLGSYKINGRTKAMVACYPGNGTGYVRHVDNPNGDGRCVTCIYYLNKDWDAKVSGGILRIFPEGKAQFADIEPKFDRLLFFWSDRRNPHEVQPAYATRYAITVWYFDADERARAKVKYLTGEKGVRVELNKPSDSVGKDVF

B1: OS-9: human OS-9 protein (667-residue isoform), HA-tagged, from expression vector or in vitro-translated (protein)
chain: MAAETLLSSLLGLLLLGLLLPASLTGGVGSLNLEELSEMRYGIEILPLPVMGGQSQSSDVVIVSSKYKQRYECRLPAGAIHFQREREEETPAYQGPGIPELLSPMRDAPCLLKTKDWWTYEFCYGRHIQQYHMEDSEIKGEVLYLGYYQSAFDWDDETAKASKQHRLKRYHSQTYGNGSKCDLNGRPREAEVRFLCDEGAGISGDYIDRVDEPLSCSYVLTIRTPRLCPHPLLRPPPSAAPQAILCHPSLQPEEYMAYVQRQADSKQYGDKIIEELQDLGPQVWSETKSGVAPQKMAGASPTKDDSKDSDFWKMLNEPEDQAPGGEEVPAEEQDPSPEAADSASGAPNDFQNNVQVKVIRSPADLIRFIEELKGGTKKGKPNIGQEQPVDDAAEVPQREPEKERGDPERQREMEEEEDEDEDEDEDEDERQLLGEFEKELEGILLPSDRDRLRSEVKAGMERELENIIQETEKELDPDGLKKESERDRAMLALTSTLNKLIKRLEEKQSPELVKKHKKKRVVPKKPPPSPQPTEEDPEHRVRVRVTKLRLGGPNQDLTVLEMKRENPQLKQIEGLVKELLEREGLTAAGKIEIKIVRPWAEGTEEGARWLTDEDTRNLKEIFFNILVPGAEEAQKERQRQKELESNYRRVWGSPGGEGTGDLDEFDF
modifications: left off: small tags and cut ends
notes: human OS-9 protein (667-residue isoform), HA-tagged, from expression vector or in vitro-translated
Which HIF-1α protein levels ([1]; 293 cells co-transfected with HIF-1α and OS-9 expression vector, FIG. 3C) does the source give for B1 here?
The HIF-1α protein levels was “reduced”.

And the “levels of HIF-1α-TM (P402A/P564A/N803A)” value ([1]; 293 cells co-transfected with OS-9 expression vector, FIG. 4A)?
Its value is “no effect”.

What about the “levels of FLAG-tagged HIF-1α” value ([1]; 293 cells, increasing amounts of PHD2 expression vector, presence of OS-9, FIG. 6A) of the same molecule?
The value was “dramatically reduced”.

What about the “prolyl hydroxylation of GST-HIF-1α (531-826) (hydroxyproline at residue 564)” value ([2]; immunoblot with anti-Hyp-564 antibody, FIG. 7A middle panel) of the same molecule?
The value was “increase”.

And the “binding of VHL to hydroxylated GST-HIF-1α (531-826)” value ([2]; increasing amounts of in vitro-translated OS-9 added after hydroxylation, desferrioxamine present, FIG. 6C)?
Its value is “no effect”.

What about the “VHL binding to GST-HIF-1α (531-826)” value ([2]; lysates from cells co-transfected with PHD2 and OS-9 versus PHD2 alone, FIG. 7A top panel) of the same molecule?
Its value is “further increased”.

And the “Induction of p2.1 reporter activity by HIF-1α” value [3, 6]?
The value was “significantly inhibited”.

What about the “reporter gene transcription mediated by HIF-1 heterodimers containing HIF-1α-TM” value [3, 6] of the same molecule?
The value was “neither OS-9 nor PHD2 inhibited”.

What about the “Reporter gene activity induced by hypoxia and/or HIF-1α expression vector” value ([3]; co-transfection of OS-9 expression vector, Hep3B cells, 20% or 1% O2, FIG. 3A) of the same molecule?
The value was “dramatically inhibited”.

What about the “interaction of OS-9 with PHD2” value [4] of the same molecule?
The value was “interaction”.

What about the PHD2 protein levels [5] of the same molecule?
The PHD2 protein levels was “no effect”.
